This assay concerns the target surface nucleolin on human cells (human, UniProt P19338 2-710). Description: cell-based or functional assay.

Square brackets hold non-standard residues; d marks the D form. Ends that are not written are not given here. KΨPR = pseudopeptide unit Lys-Ψ(CH2-N)-Pro-Arg; Aib = CC(C)(N)C(=O)O

We go through one molecule from patent US20110065649A1 (CENTRE NATIONAL DE LA RECHERCHE SCIENTIFIQUE CNRS, published 2011).

surface nucleolin on human cells, sequence (P19338 2-710): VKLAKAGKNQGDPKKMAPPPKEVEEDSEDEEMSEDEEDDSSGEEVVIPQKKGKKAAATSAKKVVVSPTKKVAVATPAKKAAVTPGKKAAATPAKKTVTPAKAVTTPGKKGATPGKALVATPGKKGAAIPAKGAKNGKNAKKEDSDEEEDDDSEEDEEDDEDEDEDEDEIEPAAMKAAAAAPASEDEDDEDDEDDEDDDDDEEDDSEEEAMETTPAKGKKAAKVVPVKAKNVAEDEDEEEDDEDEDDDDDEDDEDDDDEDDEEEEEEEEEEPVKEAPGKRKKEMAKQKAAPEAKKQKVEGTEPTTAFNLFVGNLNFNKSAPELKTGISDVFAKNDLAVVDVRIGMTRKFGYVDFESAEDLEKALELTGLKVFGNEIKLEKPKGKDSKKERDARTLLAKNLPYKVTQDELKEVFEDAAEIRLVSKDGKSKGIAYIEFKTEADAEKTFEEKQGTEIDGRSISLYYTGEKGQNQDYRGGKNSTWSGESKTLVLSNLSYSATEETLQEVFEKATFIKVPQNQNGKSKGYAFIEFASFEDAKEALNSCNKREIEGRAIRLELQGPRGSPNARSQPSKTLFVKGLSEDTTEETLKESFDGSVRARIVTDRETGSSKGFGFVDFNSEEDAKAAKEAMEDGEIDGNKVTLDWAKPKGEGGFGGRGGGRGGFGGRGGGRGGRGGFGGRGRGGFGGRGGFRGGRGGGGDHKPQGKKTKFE

B1: hexavalent compound Nucant 6 (peptide)
chain: Ac-K(KΨPR)[Aib]GK(KΨPR)[Aib]GK(KΨPR)[Aib]GK(KΨPR)[Aib]GK(KΨPR)[Aib]GK(KΨPR)[Aib]G-NH2
peptide: Lys-Pro-Arg
modifications: also: chain 2 is the KΨPR unit, one copy bound via its C-terminus as amide on the ε-amine of each of the 6 Lys of chain 1, reduced bond Ψ(CH2-N) between K and P of chain 2
As to B1, the “ID50 (Inhibitory Dose at 50%) of surface nucleolin activity in HeLa P4 cells” value is under 100 nM.
